Experimental data taken from patent US20240182536A1 (MURAL ONCOLOGY, published 2024).

Legend:
[1] = molecular target: T1, mouse IL-18 receptors on PathHunter U2OS mIL18-NF-kb reporter cells (mouse, UniProt Q61098 20-537; Q9Z2B1 20-614); assay: cell-based or functional assay
T1 sequence (looked up) 1: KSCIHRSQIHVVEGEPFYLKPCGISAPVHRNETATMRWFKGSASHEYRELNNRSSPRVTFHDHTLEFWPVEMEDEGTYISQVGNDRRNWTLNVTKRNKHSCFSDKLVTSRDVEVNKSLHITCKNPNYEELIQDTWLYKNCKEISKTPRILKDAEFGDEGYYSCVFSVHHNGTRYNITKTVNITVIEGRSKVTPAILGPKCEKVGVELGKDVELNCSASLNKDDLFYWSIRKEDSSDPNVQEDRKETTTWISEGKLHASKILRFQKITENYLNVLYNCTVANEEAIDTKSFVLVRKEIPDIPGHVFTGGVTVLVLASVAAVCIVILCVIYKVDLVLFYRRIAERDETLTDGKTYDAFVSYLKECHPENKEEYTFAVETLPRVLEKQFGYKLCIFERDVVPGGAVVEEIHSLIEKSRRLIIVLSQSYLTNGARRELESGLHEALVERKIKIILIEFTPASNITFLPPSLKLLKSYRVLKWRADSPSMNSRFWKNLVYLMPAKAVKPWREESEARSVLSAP
T1 sequence (looked up) 2: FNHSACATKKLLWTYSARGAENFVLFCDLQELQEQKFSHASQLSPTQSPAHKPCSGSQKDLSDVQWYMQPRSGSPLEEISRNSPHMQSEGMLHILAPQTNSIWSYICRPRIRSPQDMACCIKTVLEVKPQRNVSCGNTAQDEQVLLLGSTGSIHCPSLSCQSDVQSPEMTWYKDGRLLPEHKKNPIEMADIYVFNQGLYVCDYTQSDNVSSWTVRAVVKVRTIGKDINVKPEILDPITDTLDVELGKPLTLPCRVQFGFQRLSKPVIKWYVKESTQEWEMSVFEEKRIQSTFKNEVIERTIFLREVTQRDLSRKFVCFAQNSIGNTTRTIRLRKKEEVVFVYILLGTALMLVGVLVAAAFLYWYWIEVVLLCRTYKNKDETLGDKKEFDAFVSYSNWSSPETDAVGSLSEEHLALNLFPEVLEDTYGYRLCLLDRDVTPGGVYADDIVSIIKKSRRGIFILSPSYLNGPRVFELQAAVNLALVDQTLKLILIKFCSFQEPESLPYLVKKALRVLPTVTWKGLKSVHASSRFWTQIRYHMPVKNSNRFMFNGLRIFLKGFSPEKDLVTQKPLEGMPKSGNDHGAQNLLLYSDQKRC

[2] = molecular target: T2, mouse IL-18 binding protein (mouse, UniProt Q9Z0M9 29-193); assay: cell-based or functional assay
T2 sequence (looked up): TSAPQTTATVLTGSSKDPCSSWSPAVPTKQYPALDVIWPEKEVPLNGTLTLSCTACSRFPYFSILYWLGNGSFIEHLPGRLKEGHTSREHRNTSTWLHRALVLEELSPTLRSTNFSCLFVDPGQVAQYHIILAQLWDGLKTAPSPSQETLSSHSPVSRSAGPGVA

[3] = molecular target: T3, mouse IL-18 receptor alpha (mouse, UniProt Q61098 20-326, limits assumed); assay: Octet BLI, monoFc scaffold
T3 construct: also called Mouse IL18Ra; mouse IL-18R alpha
T3 sequence (looked up): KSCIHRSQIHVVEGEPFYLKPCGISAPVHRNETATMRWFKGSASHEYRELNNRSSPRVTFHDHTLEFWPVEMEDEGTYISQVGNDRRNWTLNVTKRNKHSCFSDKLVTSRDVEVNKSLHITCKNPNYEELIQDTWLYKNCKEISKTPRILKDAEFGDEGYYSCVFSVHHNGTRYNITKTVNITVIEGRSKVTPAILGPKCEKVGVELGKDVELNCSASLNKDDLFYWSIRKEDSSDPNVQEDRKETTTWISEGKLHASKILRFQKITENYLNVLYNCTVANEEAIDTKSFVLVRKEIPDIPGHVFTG
Experimental: (§1) Octet 96red instrument was used to determine affinities of IL18 proteins to BP or receptors. 5-10 ug/ml analyte proteins were used for loading on Sartorius tips (AHC or SA). […] 120-180 s loading, 200 s association and 800 s dissociation were used for kinetics. 3-7 data points were used to calculate affinities.
(§2) Several mouse variants were next tested for binding affinity to mouse IL-18R alpha and mouse IL-18BP.

[4] = molecular target: T2, mouse IL-18 binding protein; assay: Octet BLI, monoFc scaffold
Experimental: as §1, §2

Binder | mouse IL-18 reporter assay EC50, without mouse IL-18BP [1] [pM] | mouse IL-18 reporter assay EC50, +Mouse IL-18BP 50 nM [2] [pM] | Kd [3] [nM] | Kd [4] [nM]
Comparator 5 (ligand) HFGRLHCTTAVIRNINDQVLFVDKRQPVFEDMTDIDQSASEPQTRLIIYAYGDSRARGKAVTLSVKDSKMSTLSCKNKIISFEEMDPPENIDDIQSDLIFFQKRVPGHNKMEFESSLYEGHFLACQKEDDAFKLILKKKDENGDKSVMFTLTNLHQS | 1.49 | 0.91 |  | 
mouse IL-18 G3T, H6K, K52A on monoFc scaffold (Fc fusion, not shown: small tags and cut ends) NFTRLKSTTAVIRNINDQVLFVDKRQPVFEDMTDIDQSASEPQTRLIIYMYADSEVRGLAVTLSVKDSKMSTLSSKNKIISFEEMDPPENIDDIQSDLIFFQKRVPGHNKMEFESSLYEGHFLACQKEDDAFKLILKKKDENGDKSVMFTLTNLHQSNGGPSVFLFPPKPKDTLMISRTPEVTCVVVDVSHEDPEVKFNWYVDGVEVHNAKTKPREEQYNSTYRVVSVLTVLHQDWLNGKEYKCKVSNKALPAPIEKTISKAKGQPREPQVYTLPPSREEMTKNQVNLTCLVKGFYPSDIAVEWESNGQPENNYKTTPPVLDSDGSFFLNSTLTVDKSRWQQGNVFSCSVMHEALHNHYTQKSLSLS | 1.76 | 1.69 | 42.7 | 78
mouse IL-18 G3T, K52A on monoFc scaffold (Fc fusion, not shown: small tags and cut ends) NFTRLHSTTAVIRNINDQVLFVDKRQPVFEDMTDIDQSASEPQTRLIIYMYADSEVRGLAVTLSVKDSKMSTLSSKNKIISFEEMDPPENIDDIQSDLIFFQKRVPGHNKMEFESSLYEGHFLACQKEDDAFKLILKKKDENGDKSVMFTLTNLHQSNGGPSVFLFPPKPKDTLMISRTPEVTCVVVDVSHEDPEVKFNWYVDGVEVHNAKTKPREEQYNSTYRVVSVLTVLHQDWLNGKEYKCKVSNKALPAPIEKTISKAKGQPREPQVYTLPPSREEMTKNQVNLTCLVKGFYPSDIAVEWESNGQPENNYKTTPPVLDSDGSFFLNSTLTVDKSRWQQGNVFSCSVMHEALHNHYTQKSLSLS | 1.24 | 20.8 | 97 | 11
mouse IL-18 G3V, H6K, K52A on monoFc scaffold (Fc fusion, not shown: small tags and cut ends) NFVRLKSTTAVIRNINDQVLFVDKRQPVFEDMTDIDQSASEPQTRLIIYMYADSEVRGLAVTLSVKDSKMSTLSSKNKIISFEEMDPPENIDDIQSDLIFFQKRVPGHNKMEFESSLYEGHFLACQKEDDAFKLILKKKDENGDKSVMFTLTNLHQSNGGPSVFLFPPKPKDTLMISRTPEVTCVVVDVSHEDPEVKFNWYVDGVEVHNAKTKPREEQYNSTYRVVSVLTVLHQDWLNGKEYKCKVSNKALPAPIEKTISKAKGQPREPQVYTLPPSREEMTKNQVNLTCLVKGFYPSDIAVEWESNGQPENNYKTTPPVLDSDGSFFLNSTLTVDKSRWQQGNVFSCSVMHEALHNHYTQKSLSLS | 0.9 | 4.86 | 4.85 | 14
mouse IL-18 G3V, K52A on monoFc scaffold (Fc fusion, not shown: small tags and cut ends) NFVRLHSTTAVIRNINDQVLFVDKRQPVFEDMTDIDQSASEPQTRLIIYMYADSEVRGLAVTLSVKDSKMSTLSSKNKIISFEEMDPPENIDDIQSDLIFFQKRVPGHNKMEFESSLYEGHFLACQKEDDAFKLILKKKDENGDKSVMFTLTNLHQSNGGPSVFLFPPKPKDTLMISRTPEVTCVVVDVSHEDPEVKFNWYVDGVEVHNAKTKPREEQYNSTYRVVSVLTVLHQDWLNGKEYKCKVSNKALPAPIEKTISKAKGQPREPQVYTLPPSREEMTKNQVNLTCLVKGFYPSDIAVEWESNGQPENNYKTTPPVLDSDGSFFLNSTLTVDKSRWQQGNVFSCSVMHEALHNHYTQKSLSLS | 0.7 | 36.4 | 8.85 | 2
